In the supplement of paper PMC10567573:

B1: DUSP5 (parent)
chain: YSEYPECCVDVKPISQEKIESERA
B2: IQUB (parent)
chain: EADYEDDSKIAFLMQLQDIQYLTE

Variants of: B1
Assay: protein stability index of a GFP-peptide fusion (GPS, HEK-293T) (PSI 1-6); higher = more stable
Details: c terminus: a fixed tail appended
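Note: lentivirally expressed fusions sorted by FACS into six bins by GFP to DsRed ratio, PSI derived from sequencing read proportions per bin multiplied by bin number.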

Protein stability index: each site, then its substitutions
E3: Y 4.24 | Q 4.36 | K 4.53 | P 4.56 | F 4.66 | H 4.49 | G 4.27 | M 4.7 | S 3.95 | D 5.39 | R 4.17 | I 4.17 | L 4.24 | T 4.67 | C 3.53 | A 4.55 | N 4.62
C7: P 5.4 | Q 5.35 | L 3.75 | I 3.37 | H 4.17 | M 3.81 | N 4.64 | R 4.26 | E 5.76 | S 5.47 | F 2.28 | V 3.95 | A 4.16 | G 5.38 | K 4.6 | D 4.89 | T 4.81 | Y 2.02 | W 2.95
Y4: G 5.77 | H 5.02 | M 4.6 | A 5.66 | W 1.72 | F 4.06 | Q 5.34 | T 5.77 | S 5.19 | I 5.75 | K 5.62 | P 5.53 | R 5.52 | D 5.67 | L 5.71 | V 5.67 | E 5.93
S2: W 4.44 | G 5.11 | F 4.11 | N 5.31 | H 2.13 | E 5.79 | T 2.62 | R 5.49 | D 5.29 | L 3.67 | Q 4.29 | Y 4.93 | I 1.92 | A 3.48 | K 5.35 | V 2.53 | M 4.28 | C 2.29 | P 4.88
P5: Y 3.9 | M 3.98 | A 4.47 | I 3.96 | H 3.39 | D 5.42 | V 4.45 | K 5.16 | N 5.38 | W 1.21 | F 3.18 | S 4.73 | R 3.48 | T 4.85 | C 4.34 | L 4.28 | Q 5.33
V9: P 4.24 | H 4.39 | Q 4.47 | D 4.12 | E 5.56 | C 4.12 | M 3.77 | R 2.94 | W 3.39 | T 4.4 | N 5.56 | A 4.26 | F 3.76 | Y 4.04 | S 4.93 | L 4.7 | K 4.53 | I 4.35 | G 4.4
E6: P 2.4 | F 2.28 | S 2.9 | H 2.47 | G 3.36 | M 1.63 | Y 1.44 | C 2.6 | R 1.83 | V 2.37 | T 2.75 | Q 2.67 | D 4.55 | K 1.38 | A 2.63 | N 3.74 | W 3.98
D10: A 3.56 | I 2.6 | K 3.71 | E 4.66 | M 2.91 | L 2.98 | F 2.47 | H 3.15 | P 3.96 | C 2.69 | R 2.84 | N 2.18
Y1: G 5.21 | Q 5.33 | M 5 | F 4.12 | L 5.5 | N 5.6 | H 5.21 | K 5.36 | P 4.94 | E 5.86 | W 5.1 | R 5.62 | D 5.29 | A 5.74 | V 5.31 | C 5.2 | I 4.87 | S 5.75 | T 5.23
C8: S 4.66 | V 4.35 | K 4.87 | N 5.64 | M 4.59 | E 4.85 | Q 4.58 | D 4.84 | W 1.32 | P 5.6 | A 4.56 | T 5.41 | R 5.24 | G 5.25 | H 5.2 | I 3.77 | L 4.07 | Y 2.15

Variants of: B2
Assay: as above
Details: c terminus: a fixed tail appended

Protein stability index: each site, then its substitutions
D3: V 2.51 | Q 2.23 | A 2.1 | Y 1.83 | S 2.51 | W 2.93 | N 2.87 | T 2.48
L22: F 2.91 | T 3.96 | D 4.97 | V 3.42 | H 4.07 | Y 3.21 | R 3.94
I10: H 4.29 | K 4.01 | L 3 | Y 2.76 | V 3.42 | A 4 | F 2.9
D7: L 1.89 | S 2.47 | H 2.98 | P 2.67 | I 1.93 | M 2.03 | R 2.87
Q20: T 3.05 | W 2.35 | P 3.45 | E 3.98 | A 2.5 | L 1.69
M14: V 2.7 | S 3.95 | D 4.27 | E 4.06 | K 3.77 | G 4.37 | C 3.21 | Q 4.23 | I 2.6 | N 4.26 | P 4.46 | L 2.32
A2: N 3.41 | P 3.73 | W 2.17 | Y 2.08 | G 2.71
L13: V 3.12 | G 4.29 | P 4.68 | R 3.88 | D 4.68 | F 2.85
F12: L 2.96 | D 5.07 | H 4.62 | C 4.29 | N 4.33 | V 3.54 | K 4.51 | P 4.75
L16: T 3.75 | E 3.96 | R 3.99 | G 4.76 | C 4.06 | K 4.53 | P 4.37
E5: S 2.24 | I 2.29 | C 2.76 | L 2.43 | M 2.53 | Q 2.62 | A 2.22
Y4: V 3.18 | C 3.27 | M 3.07 | S 3.65 | R 3.42 | Q 3.78 | D 4.24
Y21: R 2.99 | A 3.81 | L 3.44 | H 3.55
D18: R 2.32 | V 2.22 | S 2.24 | C 1.84 | E 2.86 | T 1.72 | Q 2.68 | K 2.65 | L 1.69
Q17: A 2.5 | K 2.87 | P 3.21 | N 3.5 | Y 2.51 | M 2.17
E24: W 2.45 | F 1.92 | T 2.54
E1: G 2.79 | L 2.75 | W 2.17 | H 3.29 | D 3.56 | R 2.44 | K 2.27 | N 2.85 | Y 2.23 | C 2.61
Q15: K 2.9 | S 2.46 | D 3.1 | L 2.04 | P 3.39 | W 1.78 | G 3.76
S8: H 3.44 | Y 2.34 | F 1.89 | L 2.25 | K 3.34
D6: C 2.68 | H 2.4 | K 2.63 | Y 1.86 | W 1.83
K9: S 3.06 | I 1.83 | P 2.9 | Y 2.42 | R 2.89 | V 2.3
I19: E 4.96 | D 4.94 | L 2.86 | Q 4.11 | C 3.96 | P 4.18
T23: S 3.21 | K 3.2 | G 3.19 | L 2.12 | C 1.87
A11: Q 3.49 | D 4.07 | E 3.39 | R 2.83 | C 2.54 | K 3.4 | N 3.77
